In the supplement of paper PMC10567573:
± gives the standard deviation.

Test: protein stability index of a GFP-peptide fusion (GPS, HEK-293T) (PSI 1-6); higher = more stable
[1] = treatment: DMSO, c terminus: a fixed tail appended
[2] = treatment: MLN4924 1 uM, 8 h, c terminus: a fixed tail appended
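Further: 24-mer peptide tiles fused after GFP, lentivirally expressed, FACS-sorted into six equal bins by GFP/DsRed ratio, decoded by Illumina sequencing, PSI is the read-weighted mean bin number.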

Sequence | protein stability index [1] | protein stability index [2] | protein stability index (treatment: DMSO, c terminus: native) | protein stability index (treatment: MLN4924 1 uM, 8 h, c terminus: native)
RKRRLFCTMEPEPVQPGMLIDVCK [TRIM35] | 2.6 ± 0.41 | 2.69 ± 0.12 |  | 
FEVPYYNRGLILYRLGYFDDALED [TTC32] | 2.5 ± 0.44 | 2.23 ± 0.36 |  | 
SADVVSPSGHSDAQTLAMMLQEQL [PPFIA4] | 4.54 ± 0.32 | 4.97 ± 0.35 |  | 
TEDLCEKPDDEVKETAHDLDVKSP [RIPK4] | 5.8 ± 0.26 | 5.62 ± 0.27 |  | 
GKVQDIKAREKDGKGRTASPINSP [FSD1] | 4.99 ± 0.37 | 5.25 ± 0.24 |  | 
ETKLDLISKGEEPRAGKEESGVSV [SLC29A1] | 5.44 ± 0.15 | 5.39 ± 0.52 |  | 
EQKRLERLQRKLVEPKHCFTSPDY [SDE2] | 3.25 ± 0.35 | 3.62 ± 0.26 |  | 
AQTPPRPGPPSAPPPPPKEGHQEG [SCNN1D] | 5.73 ± 0.27 | 5.08 ± 0.72 |  | 
GKLSWGTMARALGRFKLSIPHTHL [WDR88] | 2.31 ± 0.28 | 2.13 ± 0.11 |  | 
FDGRHSQTLKAMVQAWPFTCLPLG [PRAME] | 2.38 ± 0.48 | 2.24 ± 0.36 |  | 
VRVNVLLSRYLIEPCGPGKSKLTY [DLC1] | 3.25 ± 0.83 | 2.68 ± 0.38 |  | 
LSASGPFESHDLLRKGFSCVKNEL [POMP] | 3.37 ± 0.053 | 3.35 ± 0.43 |  | 
LQAKQDGKKDVSHSSPVDLKIPQV [LCOR] | 4.94 ± 0.21 | 4.92 ± 0.06 |  | 
PQGAVLVQREKDLPNYNWNSFGLR [KISS1] | 3.04 ± 0.17 | 3.13 ± 0.32 |  | 
GRQERGLPPSMERGYPPPRDSYSS [RBMX] | 4.77 ± 0.088 | 4.71 ± 0.19 |  | 
SVTLEDVTPKKSPPPKTNLTPGQS [FAN1] | 5.11 ± 0.18 | 5.24 ± 0.34 |  | 
MQATADSTKMDCVWSNWKSQAIDL [RTN1] | 3.17 ± 0.11 | 3.41 ± 0.36 |  | 
NNFSPLHLAVDKNTTCVGRYPVCK [FEM1C] | 3.42 ± 0.15 | 3.52 ± 0.12 |  | 
YRGMLDTHHKLCTFILKNPPENSD [EIF5] | 3.29 ± 0.2 | 3.25 ± 0.18 |  | 
FSKASSSLQLVFGIELMEVDPIGH [MAGEA3] | 2.62 ± 0.6 | 2.29 ± 0.46 |  | 
DCGPSRADRCSPKEDQAWDGASQD [FBXO34] | 5.37 ± 0.24 | 5.25 ± 0.28 |  | 
DEMVIVKDIDMFSMCEHHLVPFVG [GCH1] | 2.76 ± 0.22 | 2.64 ± 0.37 |  | 
LCPLCGKNFSNNSNLIRHQRIHAA [ZNF263] | 3.97 ± 0.5 | 4.12 ± 0.47 |  | 

Sequence | protein stability index [1] | protein stability index [2] | protein stability index (treatment: DMSO, c terminus: native) | protein stability index (treatment: MLN4924 1 uM, 8 h, c terminus: native)
WCGISTDMWRSENQNRAYVTLAAH [ZBED1] | 2.37 ± 0.4 | 2.07 ± 0.05 |  | 
MGDEEKRNRAITARRQHLKSVMLQ [TNNI2] | 4.06 ± 0.3 | 4.12 ± 0.21 |  | 
VIEPVVENSGILQGKLIKRQRLAK [EFHC1] |  | 3.68 ± 0.65 |  | 
EGSLCAAHLPKAQLSGYAVEATRN [FBF1] | 4.01 ± 0.17 | 3.99 ± 0.087 |  | 
QRFEVIEFDDGSGSVLRIQPLRTP [PTPRD] | 2.68 ± 0.28 | 2.99 ± 0.21 |  | 
HTPTPFKNALEKYGPLKPLPQTPH [MYBL2] | 3.56 ± 0.28 | 3.91 ± 0.35 |  | 
LKPLCGCHSFAAAADGPTVCCNPY [SMAD6] | 2.75 ± 0.5 | 2.92 ± 0.39 |  | 
IGTQGPLENTYRDFWLMVWEQKVL [PTPN9] | 2.31 ± 0.24 | 1.79 ± 0.29 |  | 
TMLIVHHRTHTGERPYGCDECEKA [ZNF649] | 3.75 ± 0.32 | 3.7 ± 0.49 |  | 
IYQTLFLNGENSDIKICALGEEWS [GMCL1] | 2.26 ± 0.18 | 2.16 ± 0.19 |  | 
FTSGFNAAALDYEADGSTNNGIFQ [SPACA3] | 2.67 ± 0.53 | 3.48 ± 0.74 |  | 
RKLLEGEESRISVPVHSFASLNIK [PRPH] | 2.96 ± 0.23 | 3.31 ± 0.41 |  | 
DNDPSCVHPIIKRRQCRPEIRMWQ [PHTF1] | 2.54 ± 0.25 | 2.5 ± 0.41 |  | 
LHEALQDYEAGQHMEDPRRAGKML [ESRRG] | 4.74 ± 0.29 | 4.68 ± 0.38 |  | 
IQYNRRQLLILLQNCTDEGEREAI [POP5] | 2.74 ± 0.3 | 2.78 ± 0.51 |  | 
TLEGHQRAIMAHMTVEEIYKDRQK [FLOT1] | 4.52 ± 0.13 | 4.7 ± 0.19 |  | 
HRRRNQLIKKKKEELEAKRLQCPF [FAM107A] | 3.95 ± 0.38 | 4.22 ± 0.16 |  | 
LTQTMHDLAGLGSETPKSQVGTLL [CDC25B] | 3.39 ± 0.42 | 3.62 ± 0.22 |  | 
PFTKKRVGVDRAFPLKPMVHRKSC [ZC2HC1C] | 3.4 ± 0.13 | 3.65 ± 0.1 |  | 
QDSPGPREAVSQLRELCRLWLRPE [ZNF24] | 3.11 ± 0.32 | 2.9 ± 0.24 |  | 
LAFVIVLLAHRLRRWHKSRLLQAS [PCDHGA10] | 2.15 ± 0.48 | 2.21 ± 0.38 |  | 
SEHLKQRREVAKTVFCLVVIFALC [EDNRA] | 2.58 ± 1.3 | 3.31 ± 0.89 |  | 
KLAEAYLNLGPALSAALASSQKQH [C8orf76] | 2.68 ± 0.69 | 2.82 ± 0.97 |  | 

Sequence | protein stability index [1] | protein stability index [2] | protein stability index (treatment: DMSO, c terminus: native) | protein stability index (treatment: MLN4924 1 uM, 8 h, c terminus: native)
KKDILLVNDHLLNFVRERTLDKRW [PDS5B] | 2.13 ± 0.26 | 2.35 ± 0.18 |  | 
CGTPNYLSPEVLNKQGHGCESDIW [PLK2] | 2.78 ± 0.28 | 2.83 ± 0.28 |  | 
ALLFIPRRAPFDLFENKKKKNNIK [HSP90AB1] | 2.19 ± 0.27 |  |  | 
ILEFAEKEGMVSSGQNLLAVESQ [PTPN9] |  |  | 2.96 ± 0.65 | 3.03 ± 0.37
CEENEQSLPPPAGLNSSWVELPMN [BNIP3L] | 4.65 ± 0.34 | 4.41 ± 0.25 |  | 
PAAGLDVTQPCGDCGTIQENWVCL [HDAC6] | 2.68 ± 0.25 | 2.79 ± 0.25 |  | 
RESCPPLGLETLKITDFQLHASTV [CPXM2] | 3.29 ± 0.15 | 3.32 ± 0.14 |  | 
RTYKQRFLFAKLFSHITSARKARK [PHTF1] | 2.17 ± 0.14 | 2.55 ± 0.58 |  | 
WSIFYFFKSFQYPLPWSECPVVRN [SLC6A17] | 2.41 ± 0.17 | 2.59 ± 0.47 |  | 
VRVNDGGGSHPSRPNSRHTPSFSG [VDR] | 3.72 ± 0.14 | 3.86 ± 0.19 |  | 
SGYDGTFLFQKPGDKYEHHSYMGM [POMT2] | 2.68 ± 0.23 | 2.5 ± 0.5 |  | 
KPLYPDDYVHISSKPCDLHCTTVD [ADAMTSL2] | 4.29 ± 0.35 | 4.21 ± 0.36 |  | 
RELAERGVRIVSRGRTQLFSLNPR [PCDHGA10] | 3.2 ± 0.35 | 3.33 ± 0.12 |  | 
LPLLRQTAGKVLAHFYGVKLEGKV [ESRRA] | 2.26 ± 0.31 | 2.11 ± 0.18 |  | 
DDFHTNDVCSFPNALVTKLLLDCG [FEM1B] | 2.55 ± 0.26 | 2.44 ± 0.2 |  | 
GMVRAHGVRVSVPCPSTTCCRACS [BET1L] | 3.04 ± 0.29 | 3.4 ± 0.51 |  | 
RTLSLIVCTFTYLLVGAAVFDALE [KCNK9] | 2.82 ± 0.7 | 3.19 ± 0.81 |  | 
LHRESSNFDSIYICPSTFACAQLA [HDAC6] | 2.15 ± 0.46 | 2.11 ± 0.16 |  | 
SSLTADLLSVDAFAAPSPATTASP [SNAP91] | 4.65 ± 0.19 | 4.7 ± 0.083 |  | 
KLVKKHAAQRSTETALYRKMLGNP [FKBP8] | 2.95 ± 0.47 | 3.04 ± 0.25 |  | 
LAARVIVNHRIYYKGHIPEKLETF [FEM1C] | 2.82 ± 0.99 | 2.47 ± 0.52 |  | 
LFGDAFAASPGEAPAASEGAAAPA [SNAP91] | 5.07 ± 0.3 | 5.15 ± 0.15 |  | 
ARSVGLKWRKVGRSLQRGCRALRD [TRADD] | 2.57 ± 0.32 | 2.55 ± 0.46 |  | 

Sequence | protein stability index [1] | protein stability index [2] | protein stability index (treatment: DMSO, c terminus: native) | protein stability index (treatment: MLN4924 1 uM, 8 h, c terminus: native)
VSVTYCSVSQDFPGSNLNLLTNNS [ETS2] | 2.59 ± 0.39 | 2.32 ± 0.39 |  | 
LVQSSRSEVTELRRVLQGLEIELQ [KRT16] | 3.1 ± 0.24 | 3.08 ± 0.38 |  | 
ITLLILAELLIFSVPIVYEKYKTQ [RTN3] | 3.41 ± 0.32 | 3.4 ± 0.94 |  | 
IKQLRSGGTPIRGALQIEQSEESD [PTPRD] | 4.98 ± 0.36 | 5.15 ± 0.21 |  | 
HVTCVDQSEHTMVLRCQLSAEEVR [C2CD2L] | 3.73 ± 0.19 | 3.82 ± 0.18 |  | 
NEYFFDRNRPSFDAILYYYQSGGR [KCNA3] | 2.34 ± 0.3 | 2.42 ± 0.18 |  | 
VQGLMKEYLLSFPAGKTPVPAGEE [VPS39] | 3.83 ± 0.39 | 3.88 ± 0.093 |  | 
APSIEQRLQEVRESIRRAQVSQVK [FCHSD1] | 4.27 ± 0.39 | 4.35 ± 0.34 |  | 
CTEILTEKKDTITNDSLSLKPSWF [MIA2] | 3.23 ± 0.28 | 3.42 ± 0.42 |  | 
LNQGSVFQEYDTDCEVFRQRFRQF [ZNF449] | 2.98 ± 0.27 | 3.19 ± 0.12 |  | 
KTKTSEYPIIFVYYLRKGKKINSN [SPANXN3] | 2.37 ± 0.59 | 2.01 ± 0.49 |  | 
KEPAEFNGDGAFLHDNHEQMPTEI [ZNF649] | 5.11 ± 0.25 | 5.16 ± 0.26 |  | 
LAATQGLAHMIAECKKLFQVPEEM [DLC1] | 2.52 ± 0.33 | 2.47 ± 0.37 |  | 
RDLASVPPELTASRQSFRMAMGNP [DVL3] | 3.75 ± 0.32 | 3.81 ± 0.13 |  | 
SSSLAQHQRKHAGEKPFECRQRLI [ZNF8] | 3.74 ± 0.18 | 3.69 ± 0.17 |  | 
DGTSQSTGGSADLFGGFADFGSAA [CLINT1] | 4.71 ± 0.25 | 4.46 ± 0.27 |  | 
PEGYNLKDEEGRLRDPATITTLRV [PPP2R2B] | 4.54 ± 0.062 | 4.37 ± 0.29 |  | 
ATGMEVGWYRPPFSRVVHLYRNGK [MOG] | 3.12 ± 0.36 | 2.98 ± 0.14 |  | 
HFAAASTHGALCLELLVNNGADVN [ANKRD44] | 2.73 ± 0.23 | 2.62 ± 0.38 |  | 
FECAWNGSDSVIMTGAYNNFFRMF [PPP2R2C] | 2.5 ± 0.35 | 2.35 ± 0.6 |  | 
